Data taken from US6723321B2 (priority 1998, dated 2004).
Where two headings read alike, the source gives them in different places.

Legend:
RhlI [1] = molecular target: T1, RhlI (Pseudomonas aeruginosa, UniProt P54291); assay type: biochemical
RhlI [2] = molecular target: T1, RhlI; assay type: biochemical; settings: 61 μM SAM as co-substrate; tested in the R. solanacearum bioassay
RhlI [3] = molecular target: T1, RhlI; assay: radioactive in vitro assay for RhlI activity (C14-labeled SAM); assay type: biochemical; settings: for Activity in radioactive assay: potential acyl group substrates, 61 μM SAM as co-substrate
RhlI [4] = molecular target: T1, RhlI; assay type: biochemical; settings: acyl substrate varied, SAM held at 95 μM; for Km: read-out: Apparent Km
[5] = tested on: CCCC(=O)SCCNC(=O)CCNC(=O)[C@H](O)C(C)(C)COP(=O)(O)OP(=O)(O)OC[C@H]1O[C@@H](n2cnc3c(N)ncnc32)[C@H](O)[C@@H]1OP(=O)(O)O; assay: purified protein, by the assay type; settings: other: acyl substrate varied, SAM held at 95 μM
[6] = potential acyl group substrates, 61 μM SAM as co-substrate

T1 sequence (P54291 whole entry, looked up): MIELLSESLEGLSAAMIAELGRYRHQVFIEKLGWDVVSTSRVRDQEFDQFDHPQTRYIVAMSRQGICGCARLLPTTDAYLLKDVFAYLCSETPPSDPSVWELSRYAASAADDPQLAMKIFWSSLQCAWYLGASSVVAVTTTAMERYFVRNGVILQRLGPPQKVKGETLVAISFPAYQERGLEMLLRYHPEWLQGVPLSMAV

N[C@@H](CCS)C(=O)O [homocysteine]
activity, fold less when compared to reactions containing SAM (RhlI [1]; butyryl HSL bioassay, amino acid substrate): at least 150 fold | Activity in butyryl HSL bioassay (RhlI [1]; potential amino acid substrates, 39 μM butyryl ACP as co-substrate): <2 nmoles butyryl HSL formed min^−1 mg^−1

octanoyl-ACP: acylated acyl carrier protein with attached octanoyl group
Activity in bioassay (R. solanacearum bioassay) (RhlI [2]): not detected as a substrate | Activity in radioactive assay (RhlI [3]): 28 nmoles butyryl HSL formed min^−1 mg^−1 | Activity in radioactive assay (RhlI [3]; listed as Octanoyl-ACP): demonstrated to be a substrate of RhlI | Apparent Vmax (RhlI [4]): 1.8 mol of butyryl HSL min^−1 mol^−1 of RhlI | Km (RhlI [4]): 43 µM

CCCC(=O)SCCNC(=O)CCNC(=O)[C@H](O)C(C)(C)COP(=O)(O)OP(=O)(O)OC[C@H]1O[C@@H](n2cnc3c(N)ncnc32)[C@H](O)[C@@H]1OP(=O)(O)O [butyryl-CoA]
Activity in radioactive assay (RhlI [3]): 82 nmoles butyryl HSL formed min^−1 mg^−1 | Apparent Vmax (RhlI [4]): 2.1 mol of butyryl HSL min^−1 mol^−1 of RhlI | Activity in butyryl HSL bioassay (RhlI [1]; [6]): 38 nmoles butyryl HSL formed min^−1 mg^−1

CCCCCC(=O)SCCNC(=O)CCNC(=O)[C@H](O)C(C)(C)COP(=O)(O)OP(=O)(O)OC[C@H]1O[C@@H](n2cnc3c(N)ncnc32)[C@H](O)[C@@H]1OP(=O)(O)O [hexanoyl-CoA]
Activity in radioactive assay (RhlI [3]): 4 nmoles butyryl HSL formed min^−1 mg^−1

hexanoyl-ACP: acylated acyl carrier protein with attached hexanoyl group
Activity in radioactive assay (RhlI [3]): 263 nmoles butyryl HSL formed min^−1 mg^−1 | Apparent Vmax (RhlI [4]): 9.6 mol of butyryl HSL min^−1 mol^−1 of RhlI | Km (RhlI [4]): 8 µM | Activity in butyryl HSL bioassay (RhlI [1]; [6]): 91 nmoles butyryl HSL formed min^−1 mg^−1

NC(=O)C1=CN([C@@H]2O[C@H](COP(=O)(O)OP(=O)(O)OC[C@H]3O[C@@H](n4cnc5c(N)ncnc54)[C@H](OP(=O)(O)O)[C@@H]3O)[C@@H](O)[C@H]2O)C=CC1 [NADPH]
effect on the reaction rate (RhlI [3]; included with butyryl-ACP and SAM): slightly increase

RhlI (Pseudomonas aeruginosa PAO1)
Km [5]: 230 µM

butyryl-ACP: acylated acyl carrier protein with attached butyryl group; acyl substrate of RhlI
Activity in radioactive assay (RhlI [3]): 650 nmoles butyryl HSL formed min^−1 mg^−1 | Km (RhlI [4]): 6 µM | Activity in butyryl HSL bioassay (RhlI [1]; [6]): 532 nmoles butyryl HSL formed min^−1 mg^−1
